Laboratory results as given in patent US20120020975A1 (published 2012).

Target: T1, mouse PCSK9, mPCSK9-8xHIS (mouse, UniProt Q80W65 35-694, limits assumed)
T1 construct: also called His-tagged mouse PCSK9; biotinylated-mouse PCSK9
Assay: KinExA solution equilibrium
Source text: Equilibrium dissociation constant (KD) were obtained from nonlinear regression of the two sets of competition curves using a one-site homogeneous binding model. The KinExA® Pro software was employed in the analysis.

fold lower affinity than to human and cyno PCSK9: 10 to 250 fold
B1: 16F12, anti-PCSK9 huIgG4 (antibody, V domains shown)
VH: QVHLVESGGGVVQPGRSLRLSCAASGFTFNSFGMHWVRQAPGKGLEWVALIWSDGSDEYYADSVKGRFTISRDNSKNTLYLQMNSLRAEDTAVYYCARAIAALYYYYGMDVWGQGTTVTVSS
VL: QSVLTQPPSVSAAPGQKVTISCSGSSSNIGNNFVSWYQQLPGTAPKLLIYDYNKRPSGIPDRFSGSKSGTSATLGITGLQTGDEADYYCGTWDSSLSAYVFGTGTRVTVLQ
notes: also called 16F12.1
